Laboratory results reported in patent US20230279089A1 (GlaxoSmithKline, published 2023).
Changes are numbered by the printed parent chain. Where “and” joins values, the source holds several entries; their conditions need not be identical. Equal values may be shown once. Read-outs that look alike come from different tables or passages of the source.

T1: Mouse BMP1 CD+CUB1 truncated antigen (mouse, UniProt P98063 126-439, limits assumed)
T1 construct: domain: CD+CUB1
T1 sequence (looked up): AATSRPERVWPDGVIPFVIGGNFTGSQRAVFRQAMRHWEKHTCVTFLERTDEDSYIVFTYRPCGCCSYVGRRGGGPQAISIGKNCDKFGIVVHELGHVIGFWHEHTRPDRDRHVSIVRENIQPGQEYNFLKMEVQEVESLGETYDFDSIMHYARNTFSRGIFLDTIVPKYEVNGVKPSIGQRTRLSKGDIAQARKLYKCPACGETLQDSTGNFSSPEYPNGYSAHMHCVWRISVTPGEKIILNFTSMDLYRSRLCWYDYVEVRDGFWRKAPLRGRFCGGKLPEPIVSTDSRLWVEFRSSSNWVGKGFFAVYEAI

T2: Human TLL2 CD+CUB1 truncated antigen (human, UniProt Q9Y6L7 150-463, limits assumed)
T2 construct: domain: CD+CUB1
T2 sequence (looked up): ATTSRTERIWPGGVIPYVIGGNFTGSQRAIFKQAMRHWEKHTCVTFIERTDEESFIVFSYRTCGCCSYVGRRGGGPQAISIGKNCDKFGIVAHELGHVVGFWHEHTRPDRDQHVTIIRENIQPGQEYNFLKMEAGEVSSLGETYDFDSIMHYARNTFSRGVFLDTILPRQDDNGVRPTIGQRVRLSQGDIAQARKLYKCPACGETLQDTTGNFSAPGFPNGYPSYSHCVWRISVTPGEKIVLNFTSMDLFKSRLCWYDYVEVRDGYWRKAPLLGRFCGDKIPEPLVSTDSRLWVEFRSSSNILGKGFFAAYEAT

T3: Human BMP1 CD+CUB1 truncated antigen (human, UniProt P13497 121-434, limits assumed)
T3 construct: domain: CD+CUB1
T3 sequence (looked up): T1 sequence (looked up) with I99V, V134P, S178P, M247L, G279S

T4: Human BMP1-1 (human, UniProt P13497-2 121-730, limits assumed)
T4 sequence (looked up): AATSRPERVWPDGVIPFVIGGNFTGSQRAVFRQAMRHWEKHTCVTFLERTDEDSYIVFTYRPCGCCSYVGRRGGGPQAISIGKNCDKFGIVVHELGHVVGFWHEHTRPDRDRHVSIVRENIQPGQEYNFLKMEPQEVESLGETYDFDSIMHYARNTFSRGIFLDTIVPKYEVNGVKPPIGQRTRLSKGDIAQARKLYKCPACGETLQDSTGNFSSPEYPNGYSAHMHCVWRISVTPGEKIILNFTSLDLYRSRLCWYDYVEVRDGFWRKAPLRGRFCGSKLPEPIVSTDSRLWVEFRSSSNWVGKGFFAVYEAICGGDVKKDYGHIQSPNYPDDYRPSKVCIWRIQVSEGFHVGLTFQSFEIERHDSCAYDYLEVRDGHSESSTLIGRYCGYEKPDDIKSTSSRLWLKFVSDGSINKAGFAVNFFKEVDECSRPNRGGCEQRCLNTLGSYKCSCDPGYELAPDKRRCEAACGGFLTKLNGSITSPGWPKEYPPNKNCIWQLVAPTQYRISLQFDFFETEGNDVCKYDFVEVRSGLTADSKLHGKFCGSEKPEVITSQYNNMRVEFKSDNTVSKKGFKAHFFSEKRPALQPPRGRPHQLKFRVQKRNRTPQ

T5: Mouse BMP1-3: 126-707 (mouse, UniProt P98063 126-707)
T5 sequence (looked up): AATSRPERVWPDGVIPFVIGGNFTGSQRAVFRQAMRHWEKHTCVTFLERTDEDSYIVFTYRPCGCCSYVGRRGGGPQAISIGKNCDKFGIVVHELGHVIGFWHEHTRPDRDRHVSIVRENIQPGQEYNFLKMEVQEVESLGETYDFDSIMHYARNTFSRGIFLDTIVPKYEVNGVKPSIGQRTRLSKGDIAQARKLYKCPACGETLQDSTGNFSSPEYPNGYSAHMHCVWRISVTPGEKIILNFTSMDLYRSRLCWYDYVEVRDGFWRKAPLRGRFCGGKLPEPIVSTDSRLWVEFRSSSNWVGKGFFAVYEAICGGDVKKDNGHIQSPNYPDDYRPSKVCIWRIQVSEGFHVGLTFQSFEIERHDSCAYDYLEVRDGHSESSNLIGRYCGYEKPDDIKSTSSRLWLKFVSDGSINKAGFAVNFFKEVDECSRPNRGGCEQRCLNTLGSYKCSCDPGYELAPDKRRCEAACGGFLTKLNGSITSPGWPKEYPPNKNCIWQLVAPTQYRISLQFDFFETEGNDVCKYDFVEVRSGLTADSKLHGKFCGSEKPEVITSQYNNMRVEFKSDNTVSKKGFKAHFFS

T6: Cyno TLL1 (cyno, UniProt A0A1D5QYV0 148-1013 (rhesus entry))
T6 sequence: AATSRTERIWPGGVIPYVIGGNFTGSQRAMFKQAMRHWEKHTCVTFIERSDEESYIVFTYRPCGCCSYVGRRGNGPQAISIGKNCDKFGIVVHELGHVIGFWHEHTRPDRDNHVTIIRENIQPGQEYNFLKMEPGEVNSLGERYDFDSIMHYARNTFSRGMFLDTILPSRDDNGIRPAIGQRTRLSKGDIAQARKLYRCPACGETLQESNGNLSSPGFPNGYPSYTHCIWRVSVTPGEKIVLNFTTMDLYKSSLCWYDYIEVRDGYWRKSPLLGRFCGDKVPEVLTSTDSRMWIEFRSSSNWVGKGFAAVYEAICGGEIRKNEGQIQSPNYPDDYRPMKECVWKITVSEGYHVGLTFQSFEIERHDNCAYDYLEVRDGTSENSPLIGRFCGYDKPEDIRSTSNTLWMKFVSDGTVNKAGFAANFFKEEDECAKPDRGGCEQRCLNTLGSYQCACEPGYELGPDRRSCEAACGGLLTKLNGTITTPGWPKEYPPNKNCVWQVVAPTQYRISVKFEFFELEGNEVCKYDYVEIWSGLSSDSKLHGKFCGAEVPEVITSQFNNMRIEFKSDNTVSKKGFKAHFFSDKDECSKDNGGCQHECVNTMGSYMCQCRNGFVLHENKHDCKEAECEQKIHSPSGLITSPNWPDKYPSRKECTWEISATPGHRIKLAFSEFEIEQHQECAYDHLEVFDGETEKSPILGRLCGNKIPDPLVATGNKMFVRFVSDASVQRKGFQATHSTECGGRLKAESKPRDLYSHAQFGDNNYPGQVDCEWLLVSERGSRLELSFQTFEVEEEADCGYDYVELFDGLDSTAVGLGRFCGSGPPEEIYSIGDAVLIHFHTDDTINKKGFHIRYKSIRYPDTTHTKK

T7: Mouse TLL1 (mouse, UniProt Q62381 148-1013, limits assumed)
T7 sequence (looked up): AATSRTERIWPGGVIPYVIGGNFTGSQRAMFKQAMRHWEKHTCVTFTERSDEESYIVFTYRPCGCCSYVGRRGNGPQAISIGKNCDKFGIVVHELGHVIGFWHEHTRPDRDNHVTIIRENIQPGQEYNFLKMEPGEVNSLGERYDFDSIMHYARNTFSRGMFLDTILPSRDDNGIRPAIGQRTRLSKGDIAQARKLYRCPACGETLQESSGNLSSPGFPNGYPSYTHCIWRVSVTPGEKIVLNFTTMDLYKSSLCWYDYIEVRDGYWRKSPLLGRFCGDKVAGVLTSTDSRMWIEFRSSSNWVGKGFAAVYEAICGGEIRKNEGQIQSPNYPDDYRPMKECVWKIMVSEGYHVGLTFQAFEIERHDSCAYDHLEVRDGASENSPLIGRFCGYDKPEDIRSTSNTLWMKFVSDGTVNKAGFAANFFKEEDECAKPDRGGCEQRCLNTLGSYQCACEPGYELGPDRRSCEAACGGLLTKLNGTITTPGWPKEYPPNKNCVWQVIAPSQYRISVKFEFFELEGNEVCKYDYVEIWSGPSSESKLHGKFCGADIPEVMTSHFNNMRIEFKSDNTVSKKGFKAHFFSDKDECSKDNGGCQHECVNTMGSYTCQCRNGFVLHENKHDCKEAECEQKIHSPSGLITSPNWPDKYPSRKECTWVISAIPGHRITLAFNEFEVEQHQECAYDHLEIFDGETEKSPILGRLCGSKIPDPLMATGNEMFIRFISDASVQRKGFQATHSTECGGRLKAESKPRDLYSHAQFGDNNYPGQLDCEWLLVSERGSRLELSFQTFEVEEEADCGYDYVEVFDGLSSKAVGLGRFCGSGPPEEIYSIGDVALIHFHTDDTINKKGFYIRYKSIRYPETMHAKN

B1: 13Y039-4B06-4334 human variable region on mouse IgG2a LAGA Fc, mouse cKappa (Compound A) (antibody)
heavy: QVQLVQSGAEVKKPGASVKVSCKASGYTFLGYYMSWVRQAPGQGLEWMGWINPLSGETNYAQKFQGRVTMTRDTSISTAYMELSRLRSDDTAVYYCARDTGELDGMNWYFDLWGRGTLVTVSSAKTTAPSVYPLAPVCGDTTGSSVTLGCLVKGYFPEPVTLTWNSGSLSSGVHTFPAVLQSDLYTLSSSVTVTSSTWPSQSITCNVAHPASSTKVDKKIEPRGPTIKPCPPCKCPAPNLAGAPSVFIFPPKIKDVLMISLSPIVTCVVVDVSEDDPDVQISWFVNNVEVHTAQTQTHREDYNSTLRVVSALPIQHQDWMSGKEFKCKVNNKDLPAPIERTISKPKGSVRAPQVYVLPPPEEEMTKKQVTLTCMVTDFMPEDIYVEWTNNGKTELNYKNTEPVLDSDGSYFMYSKLRVEKKNWVERNSYSCSVVHEGLHNHHTTKSFSRTPGK
light: EIVLTQSPATLSLSPGERATLSCRASQSVSSYLAWYQQKPGQAPRLLIYDASNRATGIPARFSGSGSGTDFTLTISSLEPEDFAVYYCQQSDSWPPTFGGGTKVEIKRADAAPTVSIFPPSSEQLTSGGASVVCFLNNFYPKDINVKWKIDGSERQNGVLNSWTDQDSKDSTYSMSSTLTLTKDEYERHNSYTCEATHKTSTSPIVKSFNRNEC
notes: Reverse chimera; the printed variable regions are those of 4B06-4334; also called 13Y039-4B06-4334 reverse chimera mouse IgG2a LAGA; 13Y039-4B06-4334, mIgG2a LAGA
B2: 13Y039-8F02-2949 (antibody, human IgG1, kappa, V domains shown)
VH: QVQLVQSGAEVKKPGSSVKVSCKASGGTFSEWAISWVRQAPGQGLEWMGAIIPKFGTAEYAQKFQGRVTITADESTSTAYMELSSLRSEDTAVYYCARGAKYYYAEDYMDVWGKGTTVTVSS
VL: DIQMTQSPSSVSASVGDRVTITCRASQGISSWLAWYQQKPGKAPKLLIYAASSLQSGVPSRFSGSGSGTDFTLTISSLQPEDFATYYCQQALSLPYTFGGGTKVEIKR
notes: Fully human IgG1 LAGA, kappa; HEK expressed

Experiments:
[1] = biological target: T1, Mouse BMP1 CD+CUB1 truncated antigen; assay: SPR, captured mAb, HBS-EP
Protocol: (§1) Both antibodies 13Y039-4B06-4334 and 13Y039-3E07-2944 and the reverse chimeric antibodies were evaluated for binding to human TLL2 CD+CUB1 and mouse BMP1 CD+CUB1 truncated antigens by SPR on a BIACORE T200. Protein A/G was immobilised to a CM5 sensor chip via amine coupling and the antibodies were captured to the protein A/G surface. The antigens were passed over the captured antibody at various concentrations. The measured affinities to human TLL2 CD+CUB1 are shown in Table 2 and the measured affinities to mouse BMP1 CD+CUB1 are shown in Table 3.

[2] = biological target: T2, Human TLL2 CD+CUB1 truncated antigen; assay: SPR, captured mAb, HBS-EP
Protocol: as §1

[3] = biological target: T2, Human TLL2 CD+CUB1 truncated antigen; assay: SPR, captured mAb, HBS-EP; remark: listed apart in the source
Protocol: as §1

[4] = biological target: T3, Human BMP1 CD+CUB1 truncated antigen; assay: SPR, captured mAb, HBS-EP
[5] = biological target: T3, Human BMP1 CD+CUB1 truncated antigen; assay: SPR, captured mAb, enzyme dilution buffer
Human BMP1-1 [6] = biological target: T4, Human BMP1-1; assay: cell-based or functional assay
Mouse BMP1-3: 126-707 [7] = biological target: T5, Mouse BMP1-3: 126-707; assay: cell-based or functional assay
Human BMP1-1 [8] = biological target: T4, Human BMP1-1; assay: cell-based or functional assay; remark: listed apart in the source
Mouse BMP1-3: 126-707 [9] = biological target: T5, Mouse BMP1-3: 126-707; assay: cell-based or functional assay; remark: listed apart in the source
[10] = biological target: T3, Human BMP1 CD+CUB1 truncated antigen; assay: SPR, mAb captured on protein A, HBS-EP
Protocol: The 16 lead panel antibodies expressed in HEK cells were evaluated for binding to a truncated version of human BMP containing the catalytic domain and truncated domain (Human BMP1 CD+CUB1 truncated antigen) by SPR using BIACORE T200. HBS-EP+ buffer was used and the experiment run at 25° C. Protein A was immobilised to a CM5 sensor chip via amine coupling. The lead panel antibodies were captured onto protein A surface. Human BMP1 CD+CUB1 was then passed over the captured antibodies at various concentrations.

Cyno TLL1 = biological target: T6, Cyno TLL1; assay: cell-based or functional assay
Human BMP1-1 [11] = biological target: T4, Human BMP1-1; assay: cell-based or functional assay; remark: listed apart in the source
Mouse TLL1 = biological target: T7, Mouse TLL1; assay: cell-based or functional assay

| Kd [1] | Kd [2] [nM] | Kd [3] [nM] | Kd [4] [nM] | Kd [5] [nM] | pKi, app, FRET enzyme activity, Human BMP1 (Human BMP1-1 [6]) | pKi, app, FRET enzyme activity, Mouse BMP1 (Mouse BMP1-3: 126-707 [7]) | IC50 (read off the curve) (Human BMP1-1 [8]) [nM] | IC50 (read off the curve) (Mouse BMP1-3: 126-707 [9]) [nM] | Kd [10] [nM] | IC50, FRET enzyme activity, 750 pM biotinylated cynoTLL-1 (Cyno TLL1) [nM] | IC50, FRET enzyme activity, 62.5 pM huBMP1 (Human BMP1-1 [11]) [nM] | IC50, FRET enzyme activity, 800 pM biotinylated mTLL-1 (Mouse TLL1) [nM] | Binder |
| --- | --- | --- | --- | --- | --- | --- | --- | --- | --- | --- | --- | --- | --- |
| 0.82 nM and 1.98 nM | 3.55 | 3.54 | 2.33 | 0.04 | 12.3 | 11.4 |  |  |  |  |  |  | B1 |
|  |  |  |  |  |  |  | ~0.5 | ~0.06 | 1.6 | 0.02 | 0.06 | 0.56 | B2 |
